Experimental data taken from patent publication US20250355001A1, “METHOD FOR DETECTING A TAU PROTEIN FRAGMENT IN A SAMPLE” (GTINVENT LIMITED, priority 2022, published 2025).

B1: CE2: anti-tau core clone, Table 10; SEQ ID NO: 366 (protein)
scFv: QVQLQESGPSLVKPSQTLSLTCTVSGFSLTNYPVGWVRQAPGKALEWIGNIENDGSANYASALKSRLSITRDTSKNQVSLSLSSATTEDTAVYYCGREFGGSDGYTYFVDIDYWGPGLLVTVSSEGKSSGASGESKVDDQAVLTQPSSVSKSLGQSVSITCSGSSSNVGYGNYVSWFQQVPGSAPKILIYGATSRASGVPDRFSGSRSGNTATLTITSLQAEDEADYYCASYDGSSSGVFGSGTRLTVLG
modifications: CE2/E1B8 amino acid sequence
B2: S1G2: sheep-derived anti-tau core clone; scFv SEQ ID NO: 81, VH 455, VL 456 (protein)
scFv: QVQLQESGPSLVKPSQTLSLTCTVSGFSLTSNSVGWVRQAPGKAPEWVAGIDTDGEEGYNPALNSRLSITRDTSKSQVSLSLSSVTSEDTAVYYCGRSYRADGLAYGYVQAIDYWGPGLLVTVSSEGKSSGASGESKVDDQAVVTQPSSVSGSLGQRVSITCSGSFIGISSVGWFQQLPGSGLRTIIVASDGRPSGVPDRFSMSKSGNTATLTISSLQAEDEADYFCGSSDRTPYTGVFGSGTRLTVLG
modifications: S1G2 amino acid sequence
B3: S1D12: sheep-derived anti-tau core clone; scFv SEQ ID NO: 32, VH 443, VL 444 (protein)
scFv: QVQLQESGPSLVKPSQTLSLTCTVSGFSLNNNAVGWVRQAPGKVPESLVGCSSDGTCYYNSALKSRLDITRDTSKNQISLSLSSVTTDDAAVYYCTRGHYSIYGYDYLGTIDYWGPGLLVTVSSEGKSSGASGESKVDDQAVLTQPSSVSGSLGQRVSITCSGSSSNVGGGNSVGWYQHLPGSGLKTIIYDTNSRPSGVPDRFSGSRSGNTATLTINSLQAEDEGDYYCVTGDSTTHDDLVGSGTRLTVLG
modifications: S1D12 amino acid sequence

Assays:
Assay type in all cases: binding
htau40 = target: T1, htau40 (Homo sapiens, UniProt P10636); assay: Biacore X100 SPR kinetics of anti-tau mAbs on immobilised htau40
T1 construct: Full length tau (hT40)
Outline: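 Htau40 amine-coupled to CM5 chip (~250 RU, pH 4.0 immobilisation), reference flow cell subtracted; mAb injected at 0.78–25 nM in HBS-EP+, 120 s association, 600 s dissociation, glycine pH 1.5 regeneration. Kinetic and affinity constants from 1:1 binding model fit.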

[1] = target: T2, hT40 (T441, SEQ ID NO: 1) (Homo sapiens, UniProt P10636); assay: Biacore X100 SPR kinetics of scAbs for hT40; details: Table 23; scAb captured, T441 (hT40) analyte; 1:1 model
T2 construct: Full length tau (hT40)
Outline: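 Captured scAb on anti-HuCk CM5 surface (flow cell 1 as reference) in HBS-EP+, capture set for theoretical RMax 100 RU; hT40 injected multi-cycle (0.15625–100 nM) or single-cycle (6.25–100 nM), 120 s association, 420 s dissociation, glycine pH 2.0 regeneration. Kinetics and affinity from 1:1 binding model fit.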

dGA (SEQ ID NO: 5) = dGA (SEQ ID NO: 5) (Homo sapiens, UniProt P10636); assay: Biacore X100 SPR kinetics of scAbs for dGA; details: Table 24, scAb, dGA analyte; for Kd: dissociation rate
Description: Surface plasmon resonance (SPR) is widely regarded as the gold standard for real time measurement of protein-protein interactions such as antibody binding. All SPR experiments were carried out using a Biacore X100 machine and HBS EP+ running buffer (GE Healthcare). A ‘capture’ method was followed for affinity measurements, where an anti-human constant kappa chain (HuCk) antibody was conjugated to the surface of a CM5 sensor chip using an amine coupling kit and scAb molecules were immobilised via their HuCk domain. Amine coupling is a very common approach for immobilising the ligand to the chip surface. The chip surface has a dextran matrix derivatised with carboxyl groups, which after activation with N-hydroxysuccinimide (NHS) and 1-ethyl-3-(3-dimethylaminopropyl) carbodiimide (EDC), form reactive succinimide esters which allows the covalent capturing of the ligand via any available primary amine groups (e.g. Lysine) on the ligand (in this case anti-HuCk antibody). The capture antibody was diluted 1/100 in 10 mM Sodium acetate buffer pH 5.0 and passed over the activated chip surface for a period of at least 420 s. Final ligand immobilisation levels over 12,000 RU were deemed to be satisfactory.
Following immobilisation, the level of each scAb to be captured was identified using the standard SPR equation with a theoretical RMax of 100 RU. Analyte MW refers to the molecular weight of hT40 or dGA/dGAE molecules, while ligand MW refers to the molecular weight of the scAbs tested. RL is the desired capture level and S refers to the stoichiometric ratio:
The scAb to be tested was added only to flow cell 2 so that flow cell 1 could act as a control to subtract any interaction with the analyte and the chip surface. Both single and multi-cycle runs were utilised using wizards developed in the Biacore X100 control software which are both accepted methods of kinetic analysis (Karlsson, R., et al. Analyzing a kinetic titration series using affinity biosensors (2006) Analytical Biochemistry 349:136-47). The multi-cycle protocol was as follows-Three start-up cycles composed of an initial capture, to the desired level, of the scAb to be tested was performed followed by a 30 s injection of glycine buffer pH 2.0 after each cycle to regenerate the chip surface. The regeneration step removed any captured scAb whilst leaving the capture antibody intact and able to repeat the capture for the next cycle. Following three start-up cycles increasing concentrations (0.15625 nM-100 nM) of the target to be tested were added to the chip surface after the desired scAb capture. The target was added for a 120 s association period and 420 s dissociation period followed by another regeneration, 30 s injection of glycine buffer pH 2.0 in between each cycle.
The single cycle kinetics protocol was similar and utilised the same level of scAb capture. Three start-up cycles were used followed by 5 increasing concentrations of the analyte (6.25 nM-100 nM) for an association period of 120 s followed by a dissociation period of 420 s for each concentration. In single cycle kinetics the regeneration step was performed only after the final analyte concentration was added. Binding responses were analysed in Biacore X100 evaluation software and data fitted to a 1:1 binding model to obtain kinetic and affinity characterisation.

[2] = Table 27, mAb format, immobilised htau40
[3] = second Table 25, newly converted mAbs, hT40

dGA (SEQ ID NO: 5), sequence (P10636 614-707): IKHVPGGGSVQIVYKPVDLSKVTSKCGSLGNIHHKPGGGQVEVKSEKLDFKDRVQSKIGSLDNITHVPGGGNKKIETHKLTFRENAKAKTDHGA
T2 sequence (P10636 1-441 isoform P10636-8): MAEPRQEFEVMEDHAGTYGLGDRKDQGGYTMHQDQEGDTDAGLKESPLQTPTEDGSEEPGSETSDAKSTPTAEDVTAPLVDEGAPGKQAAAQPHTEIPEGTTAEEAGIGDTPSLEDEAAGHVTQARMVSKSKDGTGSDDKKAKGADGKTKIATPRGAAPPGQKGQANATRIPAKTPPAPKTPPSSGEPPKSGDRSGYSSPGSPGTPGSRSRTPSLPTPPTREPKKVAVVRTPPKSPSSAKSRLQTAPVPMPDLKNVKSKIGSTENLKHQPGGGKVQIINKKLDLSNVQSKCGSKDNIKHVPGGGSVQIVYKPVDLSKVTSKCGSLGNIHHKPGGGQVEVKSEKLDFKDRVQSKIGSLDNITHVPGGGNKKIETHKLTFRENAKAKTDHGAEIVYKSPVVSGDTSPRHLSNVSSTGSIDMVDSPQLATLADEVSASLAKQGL
T1 sequence (P10636 1-441 isoform P10636-8): as above

Molecule	ka (htau40; [2])	kd (htau40; [2])	ka (htau40; [3])	kd (htau40; [3])	ka [1]	kd [1]	ka (dGA (SEQ ID NO: 5))	Kd (dGA (SEQ ID NO: 5))	Kd (htau40; as quoted in Example 32, read-out: affinity)
B1	457900 M⁻¹ s⁻¹	0.005218 s⁻¹	323800 M⁻¹ s⁻¹	0.001367 s⁻¹	213700 M⁻¹ s⁻¹	0.001077 s⁻¹	137000 M⁻¹ s⁻¹	0.00242 s⁻¹	–
B2	339800 M⁻¹ s⁻¹	4.748e-05 s⁻¹	–	–	1.057e+06 M⁻¹ s⁻¹	0.00018 s⁻¹	783000 M⁻¹ s⁻¹	0.0003499 s⁻¹	–
B3	405800 M⁻¹ s⁻¹	4.093e-05 s⁻¹	–	–	1.252e+06 M⁻¹ s⁻¹	0.00015 s⁻¹	1.21e+06 M⁻¹ s⁻¹	0.000418 s⁻¹	0.12 nM
